Assay results reported in US11142548B2, “Agents that activate CD47 and their use in the treatment of inflammation” (SORBONNE UNIVERSITE, priority 2016, dated 2021).

Target: T1, HTRA1 (Homo sapiens, UniProt Q92743)
T1 construct: purchased R & D
Test: HTRA1 cleavage sites of TSP1 by LC-MS/MS
Type: biochemical
Settings: post-digestion fragments
Description: Proteins were submitted to reduction by incubation with 5 mM dithiotreitol in 50 mM ammonium bicarbonate (AmBic) for 30 min at 37° C., then alkylation with 15 mM iodoacetamide in 50 mM AmBic for 30 min, RT. Tryptic digestion was performed with a protein/enzyme ratio of 25/1 at 37° C. overnight in 50 mM AmBic.
Peptide mixtures were supplemented with formic acid to a final concentration of 0.1% and analyzed on a U3000 nanoLC (Thermo) coupled to an HCTultra ion trap (Bruker). Peptides were concentrated and desalted for 5 min on a precolumm RP-C18 (5 mm, 300 μm i.d., 100 Å, Thermo) with a mobile phase A (2% ACN/0.1% formic acid) at a flow rate of 20 μL/min then separated on an analytical column RP-C18 (15 cm, 75 μm i.d., 100 Å, Dionex) at a flow rate of 300 nL/min. Elution gradient was run from 2% to 10% of solvent B (95% ACN/0.1% formic acid) in 10 min then 10% to 35% B in 60 min and 35% to 50% B in 10 min. The ion trap was used in the positive mode with the selection of 8 precursors from each MS spectrum for fragmentation by collision induced dissociation (CID). […]
Tryptic peptides were also analyzed by MALDI-TOF MS on an Autoflex speed (Bruker) in positive reflectron mode in the mass range 700-4000 m/z using α-Cyano-4-hydroxycinnamic acid as the matrix (0.9 mg/mL CHCA in 85% CAN, 0.1% TFA, 10 mM ammonium phosphate). […]

T1 sequence (Q92743 23-480): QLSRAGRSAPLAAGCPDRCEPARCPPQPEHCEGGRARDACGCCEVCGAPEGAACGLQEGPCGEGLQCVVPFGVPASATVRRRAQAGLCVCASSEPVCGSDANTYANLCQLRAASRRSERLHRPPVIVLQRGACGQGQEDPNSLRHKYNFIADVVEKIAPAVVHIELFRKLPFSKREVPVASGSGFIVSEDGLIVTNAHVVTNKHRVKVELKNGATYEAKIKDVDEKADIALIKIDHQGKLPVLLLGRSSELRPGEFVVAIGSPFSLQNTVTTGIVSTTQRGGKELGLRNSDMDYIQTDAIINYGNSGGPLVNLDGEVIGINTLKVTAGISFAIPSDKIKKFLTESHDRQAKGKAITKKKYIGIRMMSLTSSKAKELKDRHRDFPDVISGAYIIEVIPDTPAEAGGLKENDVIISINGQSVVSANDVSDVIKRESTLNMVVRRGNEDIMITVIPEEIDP

distinct sites proteolyzed by HTRA1: 5 sites
Substance: recombinant TSP1: recombinant human TSP1 (R&D Systems), natural ligand and agonist of CD47
